# Data: patent publication US10813984B2, “Aspartate-β-hydroxylase induces epitope-specific T cell responses in tumors” (Rhode Island Hospital, priority 2014, dated 2020)
# B1: ASPH: Full-length human ASPH recombinant protein produced in a Baculovirus system, loaded on monocyte-derived DCs (protein, listed as Homo sapiens)
# chain: MAQRKNAKSSGNSSSSGSGSGSTSAGSSSPGARRETKHGGHKNGRKGGLSGTSFFTWFMVIALLGVWTSVAVVWFDLVDYEEVLGKLGIYDADGDGDFDVDDAKVLLGLKERSTSEPAVPPEEAEPHTEPEEQVPVEAEPQNIEDEAKEQIQSLLHEMVHAEHVEGEDLQQEDGPTGEPQQEDDEFLMATDVDDRFETLEPEVSHEETEHSYHVEETVSQDCNQDMEEMMSEQENPDSSEPVVEDERLHHDTDDVTYQVYEEQAVYEPLENEGIEITEVTAPPEDNPVEDSQVIVEEVSIFPVEEQQEVPPETNRKTDDPEQKAKVKKKKPKLLNKFDKTIKAELDAAEKLRKRGKIEEAVNAFKELVRKYPQSPRARYGKAQCEDDLAEKRRSNEVLRGAIETYQEVASLPDVPADLLKLSLKRRSDRQQFLGHMRGSLLTLQRLVQLFPNDTSLKNDLGVGYLLIGDNDNAKKVYEEVLSVTPNDGFAKVHYGFILKAQNKIAESIPYLKEGIESGDPGTDDGRFYFHLGDAMQRVGNKEAYKWYELGHKRGHFASVWQRSLYNVNGLKAQPWWTPKETGYTELVKSLERNWKLIRDEGLAVMDKAKGLFLPEDENLREKGDWSQFTLWQQGRRNENACKGAPKTCTLLEKFPETTGCRRGQIKYSIMHPGTHVWPHTGPTNCRLRMHLGLVIPKEGCKIRCANETRTWEEGKVLIFDDSFEHEVWQDASSFRLIFIVDVWHPELTPQQRRSLPAI
# Assays:
# PBMCs = experiment: IFN-γ ELISpot after 2 weeks PBMC culture with single ASPH peptide; assay type: cell-based, human; settings: 5 healthy blood donors HD #1-5
# Method: (§1) Epitope-specific T cells were induced according to known methods.^21 Briefly, 2.5×10^5 PBMCs/200 μl X-VIVO 15 medium supplemented with 1 mM L-glutamine, 100 U/ml penicillin, 100 μg/ml streptomycin, and 50 U/ml recombinant human IL-2 (R&D Systems) in round-bottom 96-well plates were cultured for 2 weeks with 10 μg/ml individual peptide. When mature DCs were used as antigen-presenting cells, the T cells were isolated from PBMCs by negative selection using the Pan T Cell Isolation Kit II (Miltenyi Biotec). Regulatory T(reg) cells were removed by the addition of anti-CD25 microbeads (Miltenyi Biotec) where indicated. Treg cell-depleted or non-depleted T lymphocytes (2.4×10^6) were co-cultured for 8 days with 4×10^4 mature DCs loaded with relevant antigen in 24-well plates.^11
# Human IFN-γ enzyme-linked immunospot (ELISpot) assays were performed as we described previously using a kit purchased from eBioscience (San Diego, Calif.) to determine T cell immune-reactivity.^21 Cells (5×10^4/well) were added to ELISpot plates (Millipore, Bedford, Mass.) pre-coated with anti-IFN-γ capture antibody and incubated with peptides (10 μg/ml) for 20 hours. […] The plates were developed by adding substrate, 3-amino-9-ethyl carbazole, and the number of spots/well was quantified using a CTL-immunospot S5 UV Analyzer (Cellular Technology Limited, Shaker Heights, Ohio).
# [1] = test system: established orthotropic HCC; settings: mice bearing established orthotropic HCC; cited from earlier work
# Treg cells = settings: low doses; cited from earlier work
# [2] = test system: tumor-bearing mouse model; settings: cited from earlier work
# PBMCs (CD4+ T cells) = experiment: Flow cytometric analysis of peptide-cultured PBMCs (IFN-γ+CD4+, CD154); assay type: cell-based, human; settings: PBMCs of HD #1
# Method: FIG. 3A is a histogram, FIGS. 3B and C are bar graphs, and FIG. 3D is a line graph. Characterization of ASPH peptide-specific T cell responses. PBMCs obtained from patient HD #1 were cultured with the ASPH peptides indicated. After 2 weeks incubation, the cells were collected and re-cultured with the corresponding peptides for 20 hours, followed by analyses. p52-reactive PBMCs were stained and the percentage of IFN-γ^+CD4^+ T cells was determined by flow cytometric analysis (FIG. 3A). The percentage of CD154-expressing CD4^+ T cells assessed by flow cytometric analysis was determined as a measure of the response of cells to the ASPH peptide listed in accordance with Table I (FIG. 3B). […] PBMCs cultured 2 weeks with the peptides listed were not treated or pretreated with anti-HLA-A,B,C or anti-HLA-DR for 1 hour; the same corresponding peptide (10 μg/ml) was then added and IFN-γ in the culture supernates collected after 5 days was quantified by ELISA (FIG. 3C). […] PBMCs, cultured 2 weeks with the ASPH peptides listed, were collected and reincubated with increasing concentrations of the same peptide. IFN-γ in the culture supernates collected after 5 days was quantified by standard ELISA. […]
# [3] = test system: pan T cells purified from PBMCs (CD4+ T cells, CD8+ CTLs); experiment: T cell activation by co-culture with antigen-loaded monocyte-derived DCs, flow cytometric analysis; assay type: cell-based, human
# Method: DCs were generated using known methods.^11,20 Monocytes were isolated from PBMCs using anti-CD14 microbeads (Miltenyi Biotec, Auburn, Calif.) and cultured for 5 days in X-VIVO 15 medium (Lonza, Walkerville, Md.) supplemented with human GM-CSF (R&D Systems, Minneapolis, Minn.) and IL-4 (R&D Systems). ASPH (1 μg/ml) was added on day 5. On the next day, TNF-α (R&D Systems) was added to stimulate DC maturation and the cells were incubated for another 48 hours. DCs incubated with α-fetoprotein (AFP; Zynaxis Cell Science, Malvern, Pa.) or alone served as the control. Mature, epitope-expressing DCs were collected at the end of the incubation period and used in the experiments described.
# as §1
# Flow cytometric analysis was conducted.^11 Intracellular cytokine staining was performed to evaluate T cell activation. Conjugated mouse monoclonal antibodies specific for the following determinants were used: CD4 (clone OKT4; BioLegend, San Diego, Calif.), CD8a (clone RPA-T8; BioLegend), CD137 (clone 4B4-1; BD Biosciences, San Diego, Calif.), CD154 (clone TRAP1; BD Biosciences), and IFN-γ (clone B27; BD Biosciences). Appropriate isotype controls were included in each analysis.
# Experiments were undertaken to determine the capacity of ASPH to activate CD8^+ CTLs, as well as helper CD4^+ T cells, contained in the PBMC populations derived from HCC patients. The experimental procedure for evaluating ASPH-specific T cell activation was optimized using PBMCs derived from a healthy donor.^11 Pan T cells were co-cultured with autologous, ASPH-pulsed DCs; T cells co-incubated with AFP-pulsed or non-pulsed DCs served as controls. After 8 days culture, the T cells were collected and re-incubated with freshly prepared DCs pre-loaded with the same antigen; antigen-specific T cell activation was evaluated by flow cytometric analysis. […] Moreover, they support the premise that immunization with ASPH activates protein-specific CD4^+ and CD8^+ T cells in HCC patients.
# [4] = HCC patients #1-5, ASPH-pulsed vs AFP-pulsed or non-pulsed DCs
molecule,measurement,setting,value
"QKAKVKKKKPKLLNKF (p322) [ASPH AA 322-337, HLA-DRB1-restricted]",healthy blood donors for whom the peptide was immunogenic,PBMCs,5 donors
CNC(=O)c1cc(Oc2ccc(NC(=O)Nc3ccc(Cl)c(C(F)(F)F)c3)cc2)ccn1 [sorafenib],Treg cell function and anti-tumor immunity,[1],reduced Treg cell function and enhanced anti-tumor immunity
O=P1(N(CCCl)CCCl)NCCCO1 (centres unmarked) [cyclophosphamide],number and inhibitory activity of Treg cells,Treg cells,decrease the number and inhibitory activity of Treg cells
same,"Treg cell function, immune response and tumor eradication",[2],suppressed Treg cell function and augmented the immune response and tumor eradication
"TSFFTWFMVIALLGVWTSVA (p52) [ASPH AA 52-71, HLA-DRB1-restricted]",peptide-reactive IFN-γ-producing cells that expressed CD4,PBMCs (CD4+ T cells),essentially all
B1,CD4+ T cells expressing both IFN-γ and CD154,[3]; HCC patients #1-5,expanded significantly
same,CD4+CD154+ and CD4+IFN-γ+ T cells,[3]; [4],significant increases
same,percentage of CD8+ CTLs expressing CD137 and IFN-γ,[3]; [4],significantly higher
same,percentages of responsive cells vs AFP sample or antigen control,"[3]; HCC patients, FIGS. 1B and 1D, p<0.05",significantly greater
same,ASPH-specific T cell activation after Treg cell depletion,[3]; anti-CD25 microbeads prior to co-culture,enhanced
same,activation of both CD4+ T cells and CTLs,"[3]; healthy donor HD #1, ASPH-pulsed DCs compared to AFP or no antigen",significant increases
